Results reported in paper PMC4527729, “The Inner Membrane Protein PilG Interacts with DNA and the Secretin PilQ in Transformation”.

Experiments:
[1] = target: PilG FL (Neisseria meningitidis MC58) (UniProt Q7DDR1); assay: EMSA; details: Optimized EMSA: 50 mM HEPES pH 7.5, 100 mM NaCl, 5 mM MgCl2, 1 mM DTT, 10% glycerol, 0.05% DDM, on ice 15 min, 0.45 nM DNA; first EMSA: 25 mM NaH2PO4 pH 8.0 …
PilG FL [2] = target: T1, PilG FL (Neisseria meningitidis MC58, UniProt Q7DDR1 1-410); assay: EMSA; optimized EMSA; R2 0.91?; Optimized EMSA: 50 mM HEPES pH 7.5, 100 mM NaCl, 5 mM MgCl2, 1 mM DTT, 10% glycerol, 0.05% DDM, on ice 15 min, 0.45 nM DNA; first EMSA: 25 mM NaH2PO4 pH 8.0, 150 mM NaCl, 1 mM DTT, 10% glycerol, 0.05% DDM, on ice; details: protein: recombinant; tags: C-terminal 6xHis; label: 32P end label
PilG RKK43-45AAA = PilG RKK43-45AAA (Neisseria meningitidis MC58, UniProt Q7DDR1 1-410, R43A;K44A;K45A); assay: EMSA; extrapolated; about 50% bound at 5 uM per text; Optimized EMSA: 50 mM HEPES pH 7.5, 100 mM NaCl, 5 mM MgCl2, 1 mM DTT, 10% glycerol, 0.05% DDM, on ice 15 min, 0.45 nM DNA; first EMSA: 25 mM NaH2PO4 pH 8.0, 150 mM NaCl, 1 mM DTT, 10% glycerol, 0.05% DDM, on ice; details: protein: recombinant; tags: C-terminal 6xHis; label: 32P end label
PilG166-410 = PilG166-410 (Neisseria meningitidis MC58, UniProt Q7DDR1 166-410); assay: South-western; Optimized EMSA: 50 mM HEPES pH 7.5, 100 mM NaCl, 5 mM MgCl2, 1 mM DTT, 10% glycerol, 0.05% DDM, on ice 15 min, 0.45 nM DNA; first EMSA: 25 mM NaH2PO4 pH 8.0, 150 mM NaCl, 1 mM DTT, 10% glycerol, 0.05% DDM, on ice; details: protein: recombinant, tags: C-terminal 6xHis, label: 32P end label
PilG30-80 = PilG30-80 (Neisseria meningitidis MC58, UniProt Q7DDR1 30-80); assay: as above; details: protein: recombinant, tags: C-terminal 6xHis, label: 32P end label
PilG1-60 = PilG1-60 (Neisseria meningitidis MC58, UniProt Q7DDR1 1-60); assay: as above; details: protein: recombinant, tags: C-terminal 6xHis, label: 32P end label
PilG257-410 = PilG257-410 (Neisseria meningitidis MC58, UniProt Q7DDR1 257-410); assay: as above; details: protein: recombinant, tags: C-terminal 6xHis, label: 32P end label
PilG EEE39-41AAA [3] = target: T2, PilG EEE39-41AAA (Neisseria meningitidis MC58, UniProt Q7DDR1 1-410, E39A;E40A;E41A); assay: South-western; increased vs FL per text; Optimized EMSA: 50 mM HEPES pH 7.5, 100 mM NaCl, 5 mM MgCl2, 1 mM DTT, 10% glycerol, 0.05% DDM, on ice 15 min, 0.45 nM DNA; first EMSA: 25 mM NaH2PO4 pH 8.0, 150 mM NaCl, 1 mM DTT, 10% glycerol, 0.05% DDM, on ice; details: protein: recombinant; tags: C-terminal 6xHis; label: 32P end label
PilG1-178 [4] = target: T3, PilG1-178 (Neisseria meningitidis MC58, UniProt Q7DDR1 1-178); assay: EMSA; 5 mM MgCl2; Optimized EMSA: 50 mM HEPES pH 7.5, 100 mM NaCl, 5 mM MgCl2, 1 mM DTT, 10% glycerol, 0.05% DDM, on ice 15 min, 0.45 nM DNA; first EMSA: 25 mM NaH2PO4 pH 8.0, 150 mM NaCl, 1 mM DTT, 10% glycerol, 0.05% DDM, on ice; details: protein: recombinant; tags: C-terminal 6xHis; label: 32P end label; blunt
PilG1-140 = PilG1-140 (Neisseria meningitidis MC58, UniProt Q7DDR1 1-140); assay: South-western; Optimized EMSA: 50 mM HEPES pH 7.5, 100 mM NaCl, 5 mM MgCl2, 1 mM DTT, 10% glycerol, 0.05% DDM, on ice 15 min, 0.45 nM DNA; first EMSA: 25 mM NaH2PO4 pH 8.0, 150 mM NaCl, 1 mM DTT, 10% glycerol, 0.05% DDM, on ice; details: protein: recombinant, tags: C-terminal 6xHis, label: 32P end label
PilG FL [5] = target: T1, PilG FL; assay: as above; details: protein: recombinant, tags: C-terminal 6xHis, label: 32P end label
PilG1-256 = PilG1-256 (Neisseria meningitidis MC58, UniProt Q7DDR1 1-256); assay: as above; details: protein: recombinant, tags: C-terminal 6xHis, label: 32P end label
PilG1-178 [6] = target: T3, PilG1-178; assay: as above; details: protein: recombinant, tags: C-terminal 6xHis, label: 32P end label
PilG1-80 = PilG1-80 (Neisseria meningitidis MC58, UniProt Q7DDR1 1-80); assay: as above; details: protein: recombinant, tags: C-terminal 6xHis, label: 32P end label
PilG Q55A = PilG Q55A (Neisseria meningitidis MC58, UniProt Q7DDR1 1-410, Q55A); assay: South-western; same as FL; Optimized EMSA: 50 mM HEPES pH 7.5, 100 mM NaCl, 5 mM MgCl2, 1 mM DTT, 10% glycerol, 0.05% DDM, on ice 15 min, 0.45 nM DNA; first EMSA: 25 mM NaH2PO4 pH 8.0, 150 mM NaCl, 1 mM DTT, 10% glycerol, 0.05% DDM, on ice; details: protein: recombinant; tags: C-terminal 6xHis; label: 32P end label
PilG SS62-63AA = PilG SS62-63AA (Neisseria meningitidis MC58, UniProt Q7DDR1 1-410, S62A;S63A); assay: as above; details: protein: recombinant; tags: C-terminal 6xHis; label: 32P end label
PilG EEE39-41AAA [7] = target: T2, PilG EEE39-41AAA; assay: South-western; increased vs FL; Optimized EMSA: 50 mM HEPES pH 7.5, 100 mM NaCl, 5 mM MgCl2, 1 mM DTT, 10% glycerol, 0.05% DDM, on ice 15 min, 0.45 nM DNA; first EMSA: 25 mM NaH2PO4 pH 8.0, 150 mM NaCl, 1 mM DTT, 10% glycerol, 0.05% DDM, on ice; details: protein: recombinant; tags: C-terminal 6xHis; label: 32P end label

Row | Molecule | binding result (PilG166-410) | binding result (PilG30-80) | binding result (PilG1-60) | binding result (PilG257-410) | binding result (PilG1-140) | binding result (PilG FL [5]) | binding result (PilG1-256) | binding result (PilG1-178 [6]) | binding result (PilG1-80) | further results
1 | 52 bp dsDNA, S3 Fig |  |  |  |  |  |  |  |  |  | Kd [1]: 300 nM
2 | HH8 (ssDNA) DNA: GTTGTTGTTGTTTTCAGACGGCATGTTGGTTCAGACGGCATTTGTTGTTGTT | no binding | no binding | no binding | no binding |  |  |  |  |  | apparent K (half saturation) (PilG FL [2]): 1160 nM; apparent K (half saturation) (PilG RKK43-45AAA): ~15.7 mM; binding result (PilG EEE39-41AAA [3]): binds
3 | HH10HH11 (dsDNA DUS-) (dsDNA) DNA 1: AACAACAACAAAAGGCCTGTCATCCAACTTCCGGACAGTAAACAACAACAAC DNA 2: GTTGTTGTTGTTTACTGTCCGGAAGTTGGATGACAGGCCTTTTGTTGTTGTT |  |  |  |  |  |  |  |  |  | apparent K (half saturation) (PilG1-178 [4]): 269 nM
4 | T3 (ssDNA) DNA: CAACAACAACAACAGGCCTGTCATCCAAAATGACAGGCCAACAACAACAACA | no binding | no binding | no binding | no binding | binds | binds | binds | binds | binds | 
5 | T3T4 (dsDNA) DNA 1: CAACAACAACAACAGGCCTGTCATCCAAAATGACAGGCCAACAACAACAACA DNA 2: TGTTGTTGTTGTTGGCCTGTCATTTTGGATGACAGGCCTGTTGTTGTTGTTG |  |  |  |  |  |  |  |  |  | binding result (PilG1-140; blunt): binds; binding result (PilG166-410; blunt): no binding; binding result (PilG FL [5]; blunt): binds; binding result (PilG1-256; blunt): binds; binding result (PilG30-80; blunt): no binding; binding result (PilG1-178 [6]; blunt): binds; binding result (PilG1-80; blunt): binds; binding result (PilG1-60; blunt): no binding; binding result (PilG257-410; blunt): no binding
6 | T1 (ssDNA) DNA: CAACAACAACAACAGCCGTCTGAACCAAATTCAGACGGCAACAACAACAACA | no binding | no binding | no binding | no binding | binds | binds | binds | binds | binds | binding result (PilG Q55A): binds; binding result (PilG SS62-63AA): binds; binding result (PilG EEE39-41AAA [3]): binds
7 | T1T2 (dsDNA) DNA 1: CAACAACAACAACAGCCGTCTGAACCAAATTCAGACGGCAACAACAACAACA DNA 2: TGTTGTTGTTGTTGCCGTCTGAATTTGGTTCAGACGGCTGTTGTTGTTGTTG |  |  |  |  |  |  |  |  |  | binding result (PilG1-140; blunt): binds; binding result (PilG166-410; blunt): no binding; binding result (PilG FL [5]; blunt): binds; binding result (PilG1-256; blunt): binds; binding result (PilG30-80; blunt): no binding; binding result (PilG1-178 [6]; blunt): binds; binding result (PilG1-80; blunt): binds; binding result (PilG1-60; blunt): no binding; binding result (PilG257-410; blunt): no binding
8 | HH9 (ssDNA) DNA: GTTGTTGTTGTTATGCCGTCTGAAGTTGGATGCCGTCTGAATTGTTGTTGTT | no binding | no binding | no binding | no binding | binds | binds | binds | binds | binds | binding result (PilG EEE39-41AAA [7]): binds; binding result (PilG Q55A): binds; binding result (PilG SS62-63AA): binds
